Laboratory results published in the supplement of paper PMC9112550, “Optimization of the antimicrobial peptide Bac7 by deep mutational scanning” (BMC Biology, 2022).

Test system: Escherichia coli TOP10
Assay: shrunken log2 fold change of peptide-encoding DNA abundance (4.5 h post-induction vs induction); higher = less antimicrobial activity (less host growth inhibition)
Settings: time post-induction: 4.5 h; library: site-saturation at positions 5, 18, 19, 20
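Also: peptides expressed intracellularly from a pBAD plasmid library in pooled LB shake-flask culture, induced with 0.3% L-arabinose, DNA abundance read by NGS, three biological replicates, DESeq2 with apeglm shrinkage.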

Sequence	shrunken log2 fold change
RRIRLRPPRLPRPRPRPDPKPRP	0.331
RRIRCRPPRLPRPRPRPPGLPRP	0.72
RRIRPRPPRLPRPRPRPLKKPRP	0.295
RRIRPRPPRLPRPRPRPHNSPRP	-0.454
RRIRRRPPRLPRPRPRPEMYPRP	0.0119
RRIRHRPPRLPRPRPRPMGEPRP	-0.0135
RRIRMRPPRLPRPRPRPARMPRP	0.888
RRIRARPPRLPRPRPRPDAVPRP	0.683
RRIRDRPPRLPRPRPRPGWSPRP	0.104
RRIRPRPPRLPRPRPRPNYCPRP	-0.239
RRIRNRPPRLPRPRPRPPLTPRP	0.0501
RRIRDRPPRLPRPRPRPENQPRP	0.351
RRIRFRPPRLPRPRPRPLVRPRP	-0.102
RRIRPRPPRLPRPRPRPIPGPRP	0.0171
RRIRIRPPRLPRPRPRPEANPRP	-0.00444
RRIRGRPPRLPRPRPRPVFAPRP	0.696
RRIRRRPPRLPRPRPRPQPEPRP	0.0541
RRIRWRPPRLPRPRPRPGYDPRP	-0.0098
RRIRDRPPRLPRPRPRPIKNPRP	-0.158
RRIRVRPPRLPRPRPRPGDQPRP	0.0324
RRIRTRPPRLPRPRPRPCLHPRP	-1.17
RRIRWRPPRLPRPRPRPDVYPRP	0.00123
RRIRIRPPRLPRPRPRPVDWPRP	-0.0226
RRIRCRPPRLPRPRPRPYETPRP	0.023
RRIRWRPPRLPRPRPRPKYEPRP	-0.0182

Sequence	shrunken log2 fold change
RRIRKRPPRLPRPRPRPQPIPRP	0.424
RRIRKRPPRLPRPRPRPEKHPRP	0.401
RRIRARPPRLPRPRPRPLMAPRP	0.554
RRIRARPPRLPRPRPRPNYSPRP	-0.502
RRIRSRPPRLPRPRPRPYWEPRP	-0.0147
RRIRTRPPRLPRPRPRPCLGPRP	-0.534
RRIRQRPPRLPRPRPRPMSGPRP	0.076
RRIRWRPPRLPRPRPRPWCCPRP	-0.065
RRIRMRPPRLPRPRPRPPLDPRP	1.03
RRIRQRPPRLPRPRPRPHLNPRP	-0.29
RRIRRRPPRLPRPRPRPGLEPRP	0.472
RRIRWRPPRLPRPRPRPCIRPRP	-0.147
RRIRFRPPRLPRPRPRPIHCPRP	-0.138
RRIRNRPPRLPRPRPRPQQFPRP	-0.0018
RRIRNRPPRLPRPRPRPFAEPRP	-0.238
RRIRGRPPRLPRPRPRPQEVPRP	0.00966
RRIRSRPPRLPRPRPRPGMWPRP	0.0949
RRIRYRPPRLPRPRPRPNQCPRP	-0.352
RRIRTRPPRLPRPRPRPYDPPRP	-0.0474
RRIRYRPPRLPRPRPRPYWAPRP	-1.11
RRIRQRPPRLPRPRPRPPPTPRP	0.913
RRIRPRPPRLPRPRPRPKMTPRP	0.0519
RRIRTRPPRLPRPRPRPCDFPRP	0.042
RRIRERPPRLPRPRPRPCRRPRP	0.0646
RRIRLRPPRLPRPRPRPDVLPRP	-0.00959

Sequence	shrunken log2 fold change
RRIRRRPPRLPRPRPRPVWLPRP	0.175
RRIRFRPPRLPRPRPRPGDGPRP	0.264
RRIRHRPPRLPRPRPRPYNYPRP	-0.00747
RRIRGRPPRLPRPRPRPKNMPRP	0.176
RRIRTRPPRLPRPRPRPKMTPRP	0.214
RRIRWRPPRLPRPRPRPAHIPRP	-0.0509
RRIRARPPRLPRPRPRPSYMPRP	-0.761
RRIRDRPPRLPRPRPRPLTDPRP	0.0638
RRIRDRPPRLPRPRPRPMWLPRP	0.015
RRIRKRPPRLPRPRPRPFNDPRP	-0.135
RRIRPRPPRLPRPRPRPSDSPRP	-0.361
RRIRCRPPRLPRPRPRPCLGPRP	-0.224
RRIRHRPPRLPRPRPRPQVFPRP	-0.00865
RRIRPRPPRLPRPRPRPHNCPRP	-0.111
RRIRARPPRLPRPRPRPDLFPRP	1.09
RRIRLRPPRLPRPRPRPQCCPRP	0.0421
RRIRKRPPRLPRPRPRPQCSPRP	0.136
RRIRRRPPRLPRPRPRPGHYPRP	-0.0611
RRIRIRPPRLPRPRPRPYCNPRP	-0.154
RRIRTRPPRLPRPRPRPETLPRP	0.0577
RRIRHRPPRLPRPRPRPLEIPRP	-0.0535
RRIRCRPPRLPRPRPRPAFFPRP	0.0268
RRIRGRPPRLPRPRPRPPGIPRP	0.745
RRIRIRPPRLPRPRPRPGGCPRP	0.0544
RRIRARPPRLPRPRPRPGTSPRP	0.24
